Results as given in article PMC5600700.
One block for each substance: values may come before it.

Columns and labels:
[1] = biological target: Cx45 6E (stably expressed in MDCK cells) (not stated (human or mouse cDNA cloned)) (UniProt P28229); assay: co-IP
Cx45 CT = Cx45 CT (UniProt P36383); conditions: cited from earlier work
[2] = biological target: Cx45CT WT (Lyn-HA-Cx45CT-mVenusN and Lyn-Myc-Cx45CT-mVenusC) (not stated (human or mouse cDNA cloned)); assay: split reporter

UniProt P28229, sequence (P28229 whole entry L335E/L338E/L349E/I353E/Y356E): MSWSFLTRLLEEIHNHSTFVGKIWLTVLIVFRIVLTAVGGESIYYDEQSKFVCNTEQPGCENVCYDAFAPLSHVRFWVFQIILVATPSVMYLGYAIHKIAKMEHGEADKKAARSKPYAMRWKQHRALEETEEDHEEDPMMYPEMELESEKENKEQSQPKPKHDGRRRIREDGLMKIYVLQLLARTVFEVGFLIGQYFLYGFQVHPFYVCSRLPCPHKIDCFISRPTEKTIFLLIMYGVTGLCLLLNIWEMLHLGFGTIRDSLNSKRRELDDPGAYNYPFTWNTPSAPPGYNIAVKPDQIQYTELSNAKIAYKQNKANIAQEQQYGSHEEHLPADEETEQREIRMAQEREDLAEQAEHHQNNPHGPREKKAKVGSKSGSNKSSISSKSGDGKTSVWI
Cx45 CT, sequence (P36383 265-396): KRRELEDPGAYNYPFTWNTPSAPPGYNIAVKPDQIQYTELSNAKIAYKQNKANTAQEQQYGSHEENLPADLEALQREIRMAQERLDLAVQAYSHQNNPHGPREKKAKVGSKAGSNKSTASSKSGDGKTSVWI

Substance: β-tubulin (natural protein)
fold decrease of the co-immunoprecipitated amount relative to Cx45 WT [1]: 3 fold

Substance: Cx45 CT (from UniProt P36383)
Kd (Cx45 CT): 0.1 µM

Other lines, results leading:

fold increase of the co-immunoprecipitated amount relative to Cx45 WT [1]: 2 fold
Substance: developmentally regulated brain protein (Drebrin) (natural protein)

fold decrease of the co-immunoprecipitated amount relative to Cx45 WT [1]: 2 fold
Substance: neural precursor cell expressed developmentally down-regulated protein 4 (Nedd4) (enzyme)

fold mVenus signal at the plasma membrane (normalized to Myc) over Cx45CT 6E [2]: 2.5 fold
Substance: Cx45CT WT (Lyn-HA-Cx45CT-mVenusN and Lyn-Myc-Cx45CT-mVenusC) (domain or fragment)
